{"source": "paper PMC10349951", "target": "Recombinant Halo-tagged Synaptophysin labeled with Alexa488 (mouse) (UniProt Q62277)", "assay": "single-molecule TIRF step photobleaching", "note": "Several values for one entry are separate records, joined by “and”; a condition that tells them apart may be missing. Equal values may be shown once."}
{"substance": "Recombinant Halo-tagged Synaptophysin labeled with Alexa488 (from UniProt Q62277 1-314) (natural protein)", "values": [{"measurement": "stoichiometry N", "result": "3 copies and 5 copies"}]}
